Source: article PMC11322871, “AlphaFold2 assists in providing novel mechanistic insights into the interactions among the LUBAC subunits” (Acta Biochimica et Biophysica Sinica, 2024)
One block for each molecule: values may come before it.

B1: HOIL-1L-UBL domain (residues 55-135) (domain or fragment, human, UniProt Q9BYM8-1 55-135, looked up)
chain: IRLWVSVEDAQMHTVTIWLTVRPDMTVASLKDMVFLDYGFPPVLQQWVIGQRLARDQETLHSHGVRQNGDSAYLYLLSARN
notes: HOIL-1L, human, UBL domain, residues 55-135; also called HOIL-UBL

Assays:
[1] = target: HOIP-UBA domain (residues 466-629) (human) (UniProt Q96EP0); experiment: SPR; Biacore T200; the HOIL-1L and SHARPIN constructs mixed at the same concentration and incubated at 16°C for 2 h before analysis against HOIP-UBA (466-630); who was immobilised is not stated
[2] = target: B1; experiment: ITC; MicroCal PEAQ-ITC; cell and syringe not stated
[3] = target: B1; experiment: SPR; Biacore T200; HOIL-1L-UBL immobilised on the sensor chip, HOIP fragments flowed over
HOIP (466-695) [4] = target: T1, HOIP (466-695) (human, UniProt Q96EP0 466-695); experiment: ITC; MicroCal PEAQ-ITC; cell and syringe not stated; conditions: both partners purified
T1 construct: HOIP, human, residues 466-695 (HOIP-UBA together with HOIP 629-695); also called HOIP domain (residues 466-695)
T1 sequence (looked up): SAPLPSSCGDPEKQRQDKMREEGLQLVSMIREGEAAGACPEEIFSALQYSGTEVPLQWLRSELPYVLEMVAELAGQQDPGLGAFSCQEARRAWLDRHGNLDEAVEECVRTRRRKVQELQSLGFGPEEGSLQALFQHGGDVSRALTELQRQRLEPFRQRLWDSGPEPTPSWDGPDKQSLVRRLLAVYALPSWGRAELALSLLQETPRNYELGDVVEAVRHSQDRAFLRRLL

HOIP (466-695) [5] = target: T1, HOIP (466-695); experiment: SPR; Biacore T200; HOIL-1L-UBL immobilised on the sensor chip, HOIP fragments flowed over; conditions: both partners purified

Molecule: HOIL-1L (5-135) and SHARPIN (127-309), containing the LTM domain, mixed before SPR (from UniProt Q9BYM8-1 5-135; Q9H0F6 127-309) (complex)
Kd [1]: 496 nM

Molecule: HOIP-UBA domain (residues 466-629) (from UniProt Q96EP0 466-629) (domain or fragment)
Kd [2]: 4300 nM
Kd [3]: 543 nM

Molecule: B1
Kd (HOIP (466-695) [4]): 800 ± 200 nM
Kd (HOIP (466-695) [5]): 359 nM

Second part, the molecule after the results:

Kd [1]: 72.1 nM
Molecule: HOIL-1L-UBL and SHARPIN-UBL without the LTM domain, mixed before SPR (from UniProt Q9BYM8-1 55-135; Q9H0F6 206-309) (complex)

Kd ([3]; both partners purified): 989 nM
B2: HOIP (629-695) (domain or fragment)
chain: PEPTPSWDGPDKQSLVRRLLAVYALPSWGRAELALSLLQETPRNYELGDVVEAVRHSQDRAFLRRLL
